Consider seven molecules from publication PMC3712912, “Dynactin Subunit p150^Glued Is a Neuron-Specific Anti-Catastrophe Factor” (PLoS Biology, 2013).

Series [1] addresses tubulin (soluble tubulin dimers, bovine brain) (bovine) (UniProt Q6B856).
Series [2] shares this target. Put plainly: SEC; polypeptides incubated at the indicated molar ratio with 30 µM tubulin 10 min on ice; Superdex 200 10/300 GL, BRB20 pH 7.1 with 125 mM KCl and 10 mM imidazole (or increasing KCl, Figure 3C), eluted at 4 °C.
Series [3] addresses Taxol-stabilized microtubules (polymerized bovine brain tubulin) (bovine) (UniProt Q6B856). In words: co-sedimentation; 0.4 µM dimeric constructs with increasing concentrations of Taxol-stabilized microtubules, 37 °C 20 min, centrifuged at 100 k rpm; supernatant and pellet by SDS-PAGE and densitometry.
Series [4] concerns the molecule itself. Put plainly: cross-linking; 0.5 µM dimeric constructs in BRB20 with 125 mM NaCl and 1 mM DTT, 0.5% glutaraldehyde on ice for 2 h; SDS-PAGE and colloidal Coomassie staining.
Series [5] concerns the target T1, Taxol-stabilized microtubules (polymerized bovine brain tubulin) (bovine, UniProt Q6B856 1-445). Put plainly: co-sedimentation; 0.4 µM dimeric constructs with increasing concentrations of Taxol-stabilized microtubules, 37 °C 20 min, centrifuged at 100 k rpm; supernatant and pellet by SDS-PAGE and densitometry. To be noted: both partners purified.
Series [6] deals with T1, Taxol-stabilized microtubules …. In words: co-sedimentation; 0.1 µM C-terminal GFP-tagged constructs with increasing concentrations of Taxol-stabilized microtubules, 37 °C 20 min, centrifuged; depletion from the supernatant monitored by fluorimetry. To be noted: both partners purified.

Turning to “p150 Nt-GCN4 (human p150Glued amino acids 1–210, GCN4 coiled-coil, linker, C-terminal 6×-His) (from UniProt Q14203-1 1-210) (domain or fragment)”, in series [1], the catastrophe frequency, TIRF elongation assay from GMPCPP seeds, 100–200 nM p150 Nt-GCN4 (fold reduction) was 4 fold and the microtubule polymerization rate, TIRF elongation assay from GMPCPP seeds, 100–200 nM p150 Nt-GCN4 is 2 fold. The stoichiometry N (p150∶tubulin molar ratio) in series [2] turned out to be 1. One may read the Kd as the constant that tells how readily two partners part at equilibrium. Read a high Kd as a looser complex. “Δ5–7 Nt-GCN4 (p150Glued amino acids 1–210 deleted for exons 5–7, GCN4 coiled-coil, linker, C-terminal 6×-His) (from UniProt Q14203-1 1-210) (domain or fragment)”: the Kd in series [3] is 470 nM.

B1: p150 Nt-GCN4 (human p150Glued amino acids 1–210, GCN4 coiled-coil, linker, C-terminal 6×-His) (domain or fragment)
chain: MAQSKRHVYSRTPSGSRMSAEASARPLRVGSRVEVIGKGHRGTVAYVGATLFATGKWVGVILDEAKGKNDGTVQGRKYFTCDEGHGIFVRQSQIQVFEDGADTTSPETPDSSASKVLKREGTDTTAKTSKLRGLKPKKAPTARKTTTRRPKPTRPASTGVAGASSSLGPSGSASAGELSSSEPSTPAQTPLAAPIIPTPVLTSPGAVPPLVMKQLEDKVEELLSKNYHLENEVARLKKLVGEAAAADPPVAT
notes: p150Glued (DCTN1), human, amino acids 1-210, NM_004082.4; holds the CAP-Gly and basic domains; short linker before the C-terminal 6×-His tag; Dimer through the GCN4 coiled-coil that replaces CC1 of p150Glued; vector pET-29a; also called dimeric p150 Nt-GCN4; p150 Nt-GCN4-His; source: Rosetta E. coli, purified (Ni Sepharose, Mono S, Superdex 200); not shown: His6, C-terminal, kept
As to B1, the binding result in series [4] was “binds”. Binding in series [5] was characterised by a dissociation constant (Kd) of 290 nM.

B2: p150 Nt-GCN4 with C-terminal EGFP-6×-His (domain or fragment)
chain: MAQSKRHVYSRTPSGSRMSAEASARPLRVGSRVEVIGKGHRGTVAYVGATLFATGKWVGVILDEAKGKNDGTVQGRKYFTCDEGHGIFVRQSQIQVFEDGADTTSPETPDSSASKVLKREGTDTTAKTSKLRGLKPKKAPTARKTTTRRPKPTRPASTGVAGASSSLGPSGSASAGELSSSEPSTPAQTPLAAPIIPTPVLTSPGAVPPLVMKQLEDKVEELLSKNYHLENEVARLKKLVGEAAAADPPVAT
notes: p150Glued (DCTN1), human, amino acids 1-210, NM_004082.4; short linker, followed by EGFP-6×-His; also called C-terminal GFP-tagged dimeric construct; source: Rosetta E. coli, purified; not shown: EGFP, C-terminal, kept
B2: the affinity in series [6], expressed as Kd, was 340 nM.

B3: Q74P Nt-GCN4 (p150 Nt-GCN4 with the Perry syndrome mutation Q74P) (domain or fragment)
chain: MAQSKRHVYSRTPSGSRMSAEASARPLRVGSRVEVIGKGHRGTVAYVGATLFATGKWVGVILDEAKGKNDGTVPGRKYFTCDEGHGIFVRQSQIQVFEDGADTTSPETPDSSASKVLKREGTDTTAKTSKLRGLKPKKAPTARKTTTRRPKPTRPASTGVAGASSSLGPSGSASAGELSSSEPSTPAQTPLAAPIIPTPVLTSPGAVPPLVMKQLEDKVEELLSKNYHLENEVARLKKLVGEAAAADPPVAT
notes: p150Glued (DCTN1), human, amino acids 1-210, NM_004082.4, with the disease mutation Q74P; short linker before the C-terminal 6×-His tag; also called Q74P p150 Nt-GCN4; source: Rosetta E. coli, purified immediately before experimentation with a final gel filtration step
In the case of B3, the binding result in series [4] is on record as “binds”.

B4: p150 Nt with C-terminal EGFP-6×-His (domain or fragment, human)
chain: MAQSKRHVYSRTPSGSRMSAEASARPLRVGSRVEVIGKGHRGTVAYVGATLFATGKWVGVILDEAKGKNDGTVQGRKYFTCDEGHGIFVRQSQIQVFEDGADTTSPETPDSSASKVLKREGTDTTAKTSKLRGLKPKKAPTARKTTTRRPKPTRPASTGVAGASSSLGPSGSASAGELSSSEPSTPAQTPLAAPIIPTPVLTSPGAVPPLAAAADPPVAT
notes: p150Glued (DCTN1), human, amino acids 1-210, NM_004082.4; short linker, followed by EGFP-6×-His; also called C-terminal GFP-tagged monomeric construct; source: Rosetta E. coli, purified; not shown: EGFP, C-terminal, kept
Turning to B4, the Kd in series [6] was 890 nM.

B5: p135 Nt-GCN4 (MMRQ, p150Glued amino acids 139–210, GCN4 coiled-coil, linker, C-terminal 6×-His) (domain or fragment)
chain: MMRQAPTARKTTTRRPKPTRPASTGVAGASSSLGPSGSASAGELSSSEPSTPAQTPLAAPIIPTPVLTSPGAVPPLVMKQLEDKVEELLSKNYHLENEVARLKKLVGEAAAADPPVAT
notes: N-terminal MMRQ replicating the endogenous expressed p135 spliceform of p150Glued (DCTN1); p150Glued (DCTN1), human, amino acids 139-210 of p150Glued, NM_004082.4; lacks the CAP-Gly domain and exon 5; short linker before the C-terminal 6×-His tag; Recapitulates the neuronally enriched p135 splice form; also called p135 dimer; source: Rosetta E. coli, purified (Ni Sepharose, Mono S, Superdex 200); …
Turning to B5, the binding result in series [4] is on record as “binds”.
